B1: minF1; a variant is named by its letters at N, in order (parent)
chain: GAGACCGCAACTGAAAAGTTGTTNNNNAANNNNGGNTNNATTTCTGCACGTAGAAGCAAAAGGC

Variants of: B1
Test: fraction ligated after 30 min (ligated reads / total reads); higher = more ligase activity
Settings: with F1*subA RNA substrate (template-directed ligation), 42 °C
Protocol: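 Chip-synthesised pool of minF1 ligase ribozyme variants (single and double substitutions, single to quadruple deletions, bulge and P2 designed variants) was transcribed with T7 and reacted as a pool with excess substrate F1*subA for 30 min at 42 C in 50 mM EPPS pH 8.5, 25 mM MgCl2. Ligated and unligated RNAs were separated by PAGE, barcoded by RT and deep sequenced; fraction ligated = ligated reads / total reads, relative activity = FL / FL of wild-type minF1 (0.76); sequencing FL correlated with PAGE (R2 = 0.98). Sequences are the DNA template of the ribozyme.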
Variant GAGACCGCAACTGAAAAGTTGTTCAGAAATGATGGTTGAATTTCTGCACGTAGAAGCAAAAGGC [CAGATGATTGA] has a fraction ligated of 0.0023.
GAGACCGCAACTGAAAAGTTGTATAGAAATGGAGGGTTAATTTCTGCACGTAGAAGCAAAAGGC [TAGATGGAGTA T23A] gave a fraction ligated of 0.000612.
For GAGACCGCAACTGAAAAGTTGTTCAGAAATGATGGGTTAATTTCTGCACGTAGAAGCAAAAGGC [CAGATGATGTA], the fraction ligated was 0.00303.
With GAGACCGCAACTGAAAAGTTGTTCAGAAATGATGGGTTGATTTCTGCACGTAGAAGCAAAAGGC [CAGATGATGTG] the fraction ligated was 0.00641.
For GAGACCGCAACTGAAAAGTTGTTAAGAAATGAGGGTTGAATTTCTGCACGTAGAAGCAAAAGGC [AAGATGAGTGA], the fraction ligated was 0.00469.
GAGACCGCAACTGAAAAGTTGTACAGAATGGTGGGTTGAATTTCTGCACGTAGAAGCAAAAGGC [CAGAGGTGTGA T23A A29T] gave a fraction ligated of 0.00102.
GAGACCGCAACTGAAAAGTTGTACAGAAATGGATGGTTAATTTCTGCACGTAGAAGCAAAAGGC [CAGATGGAGTA T23A G34T] was tested, and the fraction ligated was 0.00843.
In the case of GAGACCGCAACTGAAAAGTTGTACAGAAATATGGGTTGAATTTCTGCACGTAGAAGCAAAAGGC [CAGATATGTGA T23A], the fraction ligated is reported as 0.00265.
With GAGACCGCAACTGAAAAGTTGTTCAGAAATGGATGGTTAATTTCTGCACGTAGAAGCAAAAGGC [CAGATGGAGTA G34T] the fraction ligated was 0.00644.
With GAGACCGCAACTGAAAAGTTGTTAAGAAATGATGGGTTAATTTCTGCACGTAGAAGCAAAAGGC [AAGATGATGTA] the fraction ligated was 0.00102.
GAGACCGCAACTGAAAAGTTGTTAAGAAATGATGGGTTGATTTCTGCACGTAGAAGCAAAAGGC [AAGATGATGTG] showed a fraction ligated of 0.00397.
GAGACCGCAACTGAAAAGTTGTACAGAAATGATGGGTTAATTTCTGCACGTAGAAGCAAAAGGC [CAGATGATGTA T23A] was tested, and the fraction ligated was 0.00233.
GAGACCGCAACTGAAAAGTTGTATAGAAATGATGGGTTGATTTCTGCACGTAGAAGCAAAAGGC [TAGATGATGTG T23A] gave a fraction ligated of 0.00386.
Variant GAGACCGCAACTGAAAAGTTGTATAGAAATATGGGTTGAATTTCTGCACGTAGAAGCAAAAGGC [TAGATATGTGA T23A] has a fraction ligated of 0.00255.
For GAGACCGCAACTGAAAAGTTGTACAGAAATGAGGGTTGAATTTCTGCACGTAGAAGCAAAAGGC [CAGATGAGTGA T23A], the fraction ligated was 0.00277.
GAGACCGCAACTGAAAAGTTGTATAGAAATGATGGGTTAATTTCTGCACGTAGAAGCAAAAGGC [TAGATGATGTA T23A] gave a fraction ligated of 0.00397.
GAGACCGCAACTGAAAAGTTGTTCAGAAATGGAGGGTTGATTTCTGCACGTAGAAGCAAAAGGC [CAGATGGAGTG] showed a fraction ligated of 0.00678.
In the case of GAGACCGCAACTGAAAAGTTGTTCAGAAATGGAGGGTTAATTTCTGCACGTAGAAGCAAAAGGC [CAGATGGAGTA], the fraction ligated is reported as 0.00249.
For GAGACCGCAACTGAAAAGTTGTTTAGAAATATGGGTTGAATTTCTGCACGTAGAAGCAAAAGGC [TAGATATGTGA], the fraction ligated was 0.00128.
Work on GAGACCGCAACTGAAAAGTTGTTAAGAAATGATGGTTGAATTTCTGCACGTAGAAGCAAAAGGC [AAGATGATTGA] yielded a fraction ligated of 0.0028.
With GAGACCGCAACTGAAAAGTTGTACAGAAATGGAGGGTTAATTTCTGCACGTAGAAGCAAAAGGC [CAGATGGAGTA T23A] the fraction ligated was 0.00106.
GAGACCGCAACTGAAAAGTTGTTTAGAAATGAGGGTTGAATTTCTGCACGTAGAAGCAAAAGGC [TAGATGAGTGA] was tested, and the fraction ligated was 0.00265.
GAGACCGCAACTGAAAAGTTGTTAAGAAATGGAGGGTTAATTTCTGCACGTAGAAGCAAAAGGC [AAGATGGAGTA] was tested, and the fraction ligated was 0.00181.
For GAGACCGCAACTGAAAAGTTGTTAAGAAATGGAGGGTTGATTTCTGCACGTAGAAGCAAAAGGC [AAGATGGAGTG], the fraction ligated was 0.00495.
GAGACCGCAACTGAAAAGTTGTTTAGAAATGGATGGTTGATTTCTGCACGTAGAAGCAAAAGGC [TAGATGGAGTG G34T] was tested, and the fraction ligated was 0.0121.
Variant GAGACCGCAACTGAAAAGTTGTTTAGAAATGATGGTTGAATTTCTGCACGTAGAAGCAAAAGGC [TAGATGATTGA] has a fraction ligated of 0.00145.
GAGACCGCAACTGAAAAGTTGTATAGAAATGATGGTTGAATTTCTGCACGTAGAAGCAAAAGGC [TAGATGATTGA T23A] showed a fraction ligated of 0.00257.
With GAGACCGCAACTGAAAAGTTGTATAGAATGGTGGGTTGAATTTCTGCACGTAGAAGCAAAAGGC [TAGAGGTGTGA T23A A29T] the fraction ligated was 0.00331.
Variant GAGACCGCAACTGAAAAGTTGTTTAGAAATGATGGGTTGATTTCTGCACGTAGAAGCAAAAGGC [TAGATGATGTG] has a fraction ligated of 0.0051.
GAGACCGCAACTGAAAAGTTGTTTAGAAATGATGGGTTAATTTCTGCACGTAGAAGCAAAAGGC [TAGATGATGTA] gave a fraction ligated of 0.00158.
In the case of GAGACCGCAACTGAAAAGTTGTTAAGAAATGGATGGTTAATTTCTGCACGTAGAAGCAAAAGGC [AAGATGGAGTA G34T], the fraction ligated is reported as 0.00267.
GAGACCGCAACTGAAAAGTTGTTTAGAAATGGATGGTTAATTTCTGCACGTAGAAGCAAAAGGC [TAGATGGAGTA G34T] was tested, and the fraction ligated was 0.00584.
Work on GAGACCGCAACTGAAAAGTTGTATAGAAATGAGGGTTGAATTTCTGCACGTAGAAGCAAAAGGC [TAGATGAGTGA T23A] yielded a fraction ligated of 0.00274.
GAGACCGCAACTGAAAAGTTGTTCAGAAATGGATGGTTGATTTCTGCACGTAGAAGCAAAAGGC [CAGATGGAGTG G34T] showed a fraction ligated of 0.0137.
For GAGACCGCAACTGAAAAGTTGTTCAGAAATGAGGGTTGAATTTCTGCACGTAGAAGCAAAAGGC [CAGATGAGTGA], the fraction ligated was 0.00146.
With GAGACCGCAACTGAAAAGTTGTATAGAAATGGATGGTTAATTTCTGCACGTAGAAGCAAAAGGC [TAGATGGAGTA T23A G34T] the fraction ligated was 0.0029.
GAGACCGCAACTGAAAAGTTGTACAGAAATGATGGTTGAATTTCTGCACGTAGAAGCAAAAGGC [CAGATGATTGA T23A] showed a fraction ligated of 0.00168.
GAGACCGCAACTGAAAAGTTGTTCAGAAATATGGGTTGAATTTCTGCACGTAGAAGCAAAAGGC [CAGATATGTGA] gave a fraction ligated of 0.00323.
GAGACCGCAACTGAAAAGTTGTACAGAAATGATGGGTTGATTTCTGCACGTAGAAGCAAAAGGC [CAGATGATGTG T23A] gave a fraction ligated of 0.00584.
Variant GAGACCGCAACTGAAAAGTTGTTTAGAAATGGAGGGTTAATTTCTGCACGTAGAAGCAAAAGGC [TAGATGGAGTA] has a fraction ligated of 0.00154.
GAGACCGCAACTGAAAAGTTGTTTAGAAATGGAGGGTTGATTTCTGCACGTAGAAGCAAAAGGC [TAGATGGAGTG] showed a fraction ligated of 0.00279.
GAGACCGCAACTGAAAAGTTGTTAAGAAATATGGGTTGAATTTCTGCACGTAGAAGCAAAAGGC [AAGATATGTGA] gave a fraction ligated of 0.00183.

Reference: the supplement of paper PMC6755084
